Laboratory results: US10653749B2, “Targeting GIV-GEF-GI signaling for treating diverse diseases” (The Regents of the University of California, priority 2015, dated 2020)

How the values were obtained:
HeLa cells = assay: Scratch-wound 2D cell migration assay; format: cell-based; settings: compared to mock treatment, 12 h and 24 h
Experimental: Scratch-wound assays were done as described (49). Briefly, monolayer cultures (100% confluent) of HeLa cells were incubated first in a 0.2% serum media over night. The following morning, monolayers of HeLa cells were first transduced with TAT peptides for 30 min, then washed three times with PBS and placed again in a 0.2% serum media for 1 h 30 min before scratch-wounding. The wounds were created using a 20 μL pipette tip. Transduction with TAT peptides was repeated at 12 h into the wound healing assay (a total of two times). Healing wounds were monitored by phase-contrast microscopy over the next 24 h and serially photographed using a Canon digital SLR camera. To quantify cell migration (expressed as percent of wound closure) the acquired images were analyzed using Image J software to measure open wound area. Results were expressed as % closure by calculating the difference between the wound area at 0 h, 12 h and that at 24 h divided by the area at 0 h×100. Invasion assays were performed using Corning Transwell plates according to the manufacturer's protocol.
Scratch-wound assays were done as described previously (13). […] Healing wounds were monitored by phase-contrast microscopy over the next 24 h and migration index was quantified (expressed as % wound closure) by measuring the wounded area using Image J software.

GST-Gαi3 (GDP loaded) = target: T1, GST-Gαi3 (GDP loaded) (Rattus norvegicus, UniProt P08753); assay: In vitro GST pulldown of TAT-GIV-CT proteins with GST-Gαi3; format: binding; settings: 3 μg TAT protein, 4 h at 4° C., immunoblot with His mAb
T1 construct: made in house; host or cells: E. coli BL21(DE3)
T1 sequence (P08753 whole entry): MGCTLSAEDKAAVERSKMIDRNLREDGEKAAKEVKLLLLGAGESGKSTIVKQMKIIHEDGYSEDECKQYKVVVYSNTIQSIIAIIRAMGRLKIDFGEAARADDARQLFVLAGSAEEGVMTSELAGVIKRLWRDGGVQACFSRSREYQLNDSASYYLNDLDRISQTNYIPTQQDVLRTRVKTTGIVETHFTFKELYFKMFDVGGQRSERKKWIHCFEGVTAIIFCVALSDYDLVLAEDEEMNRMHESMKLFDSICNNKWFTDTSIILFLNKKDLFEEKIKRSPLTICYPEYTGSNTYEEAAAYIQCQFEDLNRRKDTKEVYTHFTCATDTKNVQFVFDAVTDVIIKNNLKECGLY
Experimental: Purified GST-Gαi3 or GST alone (5 μg) were immobilized on glutathione-Sepharose beads and incubated with binding buffer [50 mM Tris-HCl (pH 7.4), 100 mM NaCl, 0.4% (vol:vol) Nonidet P-40, 10 mM MgCl2, 5 mM EDTA, 30 μM GDP, 2 mM DTT, protease inhibitor mixture] for 90 min at room temperature as described (49, 50, 52, 54). TAT-GIV-CT (amino acids 1,660-1,870) proteins (3 μg) were added to each tube, and binding reactions were carried out for 4 h at 4° C. with constant tumbling. Beads were washed (four times) with 1 mL of wash buffer [4.3 mM Na2HPO4, 1.4 mM KH2PO4 (pH 7.4), 137 mM NaCl, 2.7 mM KCl, 0.1% (vol:vol) Tween 20, 10 mM MgCl2, 5 mM EDTA, 30 μM GDP, 2 mM DTT] and reduced in Laemmli's sample buffer at 37° C. Immunoblot analysis was performed by infrared imaging following the manufacturer's protocols using an Odyssey imaging system (Li-Cor Biosciences).

L6 myotubes = assay: Uptake of TAT peptides and actin staining in L6 myotubes (confocal); format: cell-based, rat; settings: 0.2% FBS overnight
Source text: Dilutions of antibodies are as follows: anti-phospho-GIV-Tyr1764 (1:200) (Ventana/Roche and Spring Biosciences); anti-HA (1:300) (Covance); anti-GFP, mouse anti-InsRβ and mouse anti-phospho-IRS1 (1:200) from Santa Cruz Biotechnologies; DAPI 1:1,000 (Molecular Probes); Secondary goat anti-rabbit (594) and goat anti-mouse (488) Alexa conjugated antibodies (1:500) from Molecular Probes. Coverslips were mounted with ProLong Gold (Life Technologies). Cells were imaged on a Leica SPE confocal microscope using a 63× oil objective using 488, 561 and 405 laser lines for excitation. Images were scanned using a line-average of 3. All images were processed using ImageJ software and assembled into figure panels using Photoshop and Illustrator (Adobe).
Transfection was carried out with GeneJuice (Novagen) for DNA plasmids or Oligofectamine (Invitrogen) for siRNA oligos according to manufacturer's protocols. Silencer negative Control scrambled (Scr) siRNA used as control was purchased from Ambion and the previously validated (Enomoto et al., 2005) GIV siRNA sequence used was custom-ordered from Dharmacon. For TAT-construct transduction, cells were incubated with 300-800 nM of the TAT-proteins for 30 min at 37° C. prior to three washes with PBS and addition of fresh growth media. […]

[1] = system: GIV, IRS1 and Akt phosphorylation; assay: Metabolic insulin signaling in L6 cells by immunoblotting; format: cell-based, rat; settings: TAT-transduced L6 myotubes; for phosphorylation of Akt in response to insulin: pS473; for phosphorylation of IRS1 in response to insulin: pY632-IRS1
Experimental: Transfection was carried out with GeneJuice (Novagen) for DNA plasmids or Oligofectamine (Invitrogen) for siRNA oligos according to manufacturer's protocols. Silencer negative Control scrambled (Scr) siRNA used as control was purchased from Ambion and the previously validated (Enomoto et al., 2005) GIV siRNA sequence used was custom-ordered from Dharmacon. For TAT-construct transduction, cells were incubated with 300-800 nM of the TAT-proteins for 30 min at 37° C. prior to three washes with PBS and addition of fresh growth media. For assays involving insulin (Novagen) stimulation of TAT-treated cells, such stimulation was carried out 90 min after transduction.
Unless otherwise indicated, serum starvation of cells for use in experiments involving insulin stimulation was carried out by growing cells overnight in the presence of no serum (i.e., 0% FBS) in the case of Cos7 and L6 cells, or in the presence of 0.2% FBS in the case of HeLa cells. To induce IR, cells were pre-treated with Sodium Palmitate (PA; Sigma-Aldrich) (0.5 mM, stock solution at 5 mM/5% FFA-free BSA in ethanol) or vehicle control (5% FFA-free BSA in ethanol) for 16 h. To reverse IR with TZDs, cells were treated with 50 μM Pioglitazone (Pio) (Sigma-Aldrich) or DMSO (vehicle control) for 18 h prior to stimulation with 100 nM insulin. Treatment with PKCθ pseudo-substrate inhibitor (Santa Cruz Biotechnologies) was performed at 10 μM for 16 h.
Protein samples for immunoblotting were run on SDS/PAGE gels and transferred onto PVDF membranes (Millipore). Membranes were blocked with PBS containing 5% non-fat milk (or with 5% BSA when probing for phosphorylated proteins) before incubation with primary antibodies. GIV was detected using rabbit anti-GIV coiled-coil (Millipore) (1:500); GIV-CT (Santa Cruz Biotechnologies) (1:500); phospho-Tyr1764-GIV (1:500) and phospho-Ser1689-GIV (21st Century Biochemicals) (1:250) antibodies. Other antibodies used in this work include rabbit polyclonal antibodies against Gαi3 (1:333), pan-GP (1:250) and phospho-IRS1 (1:500) from Santa Cruz Biotechnologies; and phospho-Akt (1:250); total Akt (1:250); phospho-ERK (1:250); phospho-AS160 (1:250); total InsRβ (1:500) and total IRS1 (1:500) from Cell signaling. Mouse monoclonal Abs against phospho-InsRβ (1:250), His (1:1000), β-tubulin (1:1000), GFP (1:500) from Santa Cruz Biotechnologies, and control IgG (Bio-Rad Laboratories) were commercially obtained. Goat anti-rabbit and goat anti-mouse Alexa Fluor 680 or IRDye 800 F(ab′)2 secondary antibodies were purchased from Li-Cor Biosciences. Images were processed with ImageJ software (NIH) and assembled as figure panels using Photoshop and Illustrator software (Adobe).

| Binding to GDP-loaded GST-Gαi3 in pulldown (GST-Gαi3 (GDP loaded); listed as FA) | Molecule | 2D-migration and wound closure (HeLa cells) | Binding to GDP-loaded GST-Gαi3 in pulldown (GST-Gαi3 (GDP loaded)) | Binding to GDP-loaded GST-Gαi3 in pulldown (GST-Gαi3 (GDP loaded); listed as WT) | actin stress-fiber formation in L6 myotubes (L6 myotubes) | phosphorylation of Akt in response to insulin [1] | phosphorylation of IRS1 in response to insulin [1] | 2D-migration and wound closure (HeLa cells; listed as FA) |
| --- | --- | --- | --- | --- | --- | --- | --- | --- |
|  | TAT-GIV-CT-WT: Recombinant cell-permeable fusion of TAT-PTD, His and HA tags, linker and human GIV C-terminus (aa 1660-1870), wild type; SEQ ID NO: 2 (protein) MRGSHHHHHHGMASMTGGQQMGRDLYDDDDKDRWGSKLGYGRKKRRQRRRGGSTMSGYPYDVPDYAGSMGGSGHSGETLESRHHKIKTGSPGSEVVTLQQFLEESNKLTSVQIKSSSQENLLDEVMKSLSVSSDFLGKDKPVSCGLARSVSGKTPGDFYDRRTTKPEFLRPGPRKTEDTYFISSAGKPTPGTQGKIKLVKESSLSRQSKDSNPYATLPRASSVISTAEGTTRRTSIHDFLTKDSRLPISVDSPPAAADSNTTAASNVDKVQESRNSKSRSREQQSS | enhances | bound | binds | enhancement | enhancement | enhancement |  |
| not | TAT-GIV-CT-FA: GEF-deficient F1685A mutant of the TAT-GIV-CT peptide, dominant-negative; SEQ ID NO: 3 (protein) MRGSHHHHHHGMASMTGGQQMGRDLYDDDDKDRWGSKLGYGRKKRRQRRRGGSTMSGYPYDVPDYAGSMGGSGHSGETLESRHHKIKTGSPGSEVVTLQQALEESNKLTSVQIKSSSQENLLDEVMKSLSVSSDFLGKDKPVSCGLARSVSGKTPGDFYDRRTTKPEFLRPGPRKTEDTYFISSAGKPTPGTQGKIKLVKESSLSRQSKDSNPYATLPRASSVISTAEGTTRRTSIHDFLTKDSRLPISVDSPPAAADSNTTAASNVDKVQESRNSKSRSREQQSS |  | did not bind |  | disrupted | suppressed | suppressed | delayed wound closure and not |
